The experiment deals with Hemagglutinin of AIV A/duck/It/775/04(H5N3) (Influenza A virus A/duck/Italy/775/2004(H5N3)). Kind of experiment: cell-based or functional assay.
In turn, “mAb 9 (Pierce/Thermo Sci., Cat. No. MA1-81928) (antibody)” returned an HI titer of 7.8 µg/mL.

Substance “mAb 7: Monoclonal Antibody to Influenza A (Hemagglutinin H5) H5N1 - Purified, Acris Antibodies AM00945PU-N” had an HI titer of 2 µg/mL. For “mAb 8: Monoclonal Antibody to Influenza A (Hemagglutinin H5) H5N1 - Purified, Acris Antibodies AM00941PU-N” the value was 1 µg/mL.

Source of the values: patent US20190352375A1.
